Patent US20220031842A1 (JIANGSU HENGRUI MEDICINE, published 2022)

What was measured:
[1] = biological target: T1, Fusion protein of LAG-3 extracellular region and mIgG2a Fc (human); experiment: ELISA, LAG-3-mFc captured by anti-mouse Fc on plate (which fusion: inferred)
T1 construct: Limits of the signal peptide are marked only by lost underlining; also called LAG-3-mFc; LAG-3-mFc fusion protein
T1 chain: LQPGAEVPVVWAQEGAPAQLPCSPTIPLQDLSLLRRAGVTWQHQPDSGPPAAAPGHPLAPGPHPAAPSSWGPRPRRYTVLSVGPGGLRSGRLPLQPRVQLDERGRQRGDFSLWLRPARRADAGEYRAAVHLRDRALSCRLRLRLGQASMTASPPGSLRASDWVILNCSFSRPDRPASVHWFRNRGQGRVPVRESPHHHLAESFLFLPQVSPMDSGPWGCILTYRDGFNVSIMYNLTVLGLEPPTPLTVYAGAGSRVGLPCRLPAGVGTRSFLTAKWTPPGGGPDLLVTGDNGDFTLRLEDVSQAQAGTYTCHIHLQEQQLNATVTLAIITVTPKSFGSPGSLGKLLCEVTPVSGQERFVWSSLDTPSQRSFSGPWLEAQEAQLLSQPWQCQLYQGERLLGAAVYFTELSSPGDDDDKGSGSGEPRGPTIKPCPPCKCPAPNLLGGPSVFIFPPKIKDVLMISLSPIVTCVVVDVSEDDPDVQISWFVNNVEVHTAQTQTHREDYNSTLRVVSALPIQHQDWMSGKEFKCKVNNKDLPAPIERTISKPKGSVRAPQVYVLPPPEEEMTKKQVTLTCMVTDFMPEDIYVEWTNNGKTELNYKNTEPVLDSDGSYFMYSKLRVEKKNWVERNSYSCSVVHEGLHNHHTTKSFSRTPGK
From the text: The binding ability of anti-LAG-3 antibody to human LAG-3 protein was detected by ELISA assay. LAG-3 fusion protein with Fc or mFc tag was immobilized into 96-well microtiter plate by binding to anti-Fc or anti-mFc antibody coated on the microtiter plate, the strength of the signal after the addition of the antibody was used to determine the binding activity of the antibody to LAG-3, the specific experimental method is as follows.
The goat anti-human Fc antibody (Jackson Immuno Research, Cat No. 109-005-008) or goat anti-mouse Fc antibody (Sigma, Cat No. M3534-1ML) was diluted to a concentration of 2 μg/ml with PBS buffer at pH 7.4 (Sigma, Cat No. P4417-100TAB), and added to a 96-well plate at a volume of 50 μl/well and then, the plate was incubated in the incubator at 37° C. for 2 hours. After discarding the liquid, the plates were blocked with 200 μl/well of blocking solution containing 5% skim milk (Bright Dairy, skim milk powder) in PBS, and incubated in the incubator at 37° C. for 2.5 hours or overnight at 4° C. (16-18 hours). After blocking, the blocking solution was discarded and the plate was washed 5 times with PBST buffer (PH7.4 PBS containing 0.05% tween-20). LAG-3-Fc fusion protein (SEQ ID NO:3, produced in-house) or LAG-3-mFc fusion protein (SEQ ID NO: 4, produced in-house) was diluted with sample diluent (PH7.4 PBS containing 1% BSA) to 1 μg/ml and was added to each well, 50 μl/well. Then the plate was incubated in the incubator at 37° C. for 1 h or overnight at 4° C. After incubation, the reaction solution in the plate was discarded, and the plate was washed with PBST for 6 times, and then was added with 50 μl/well of various concentrations of antibodies to be tested (hybridoma purified antibody or humanized antibody) which have been diluted with sample diluent, and the plate was incubated at 37° C. for 1 h. The plates was washed 5 times with PBST after incubation, and was added with 100 μl/well of goat anti-mouse (Jackson Immuno Research, Cat No. 115-035-003) or goat anti-human secondary antibody (Jackson Immuno Research, Cat No. 109-035-003) labeled with HRP, diluted in sample diluent, and the plate was incubated at 37° C. for 1 h.

[2] = biological target: T2, Fusion protein of LAG-3 extracellular region and hIgG1 Fc (human); experiment: competition: biotin-LAG-3-Fc binding to fixed Daudi cells, antibody titrated
T2 construct: Limits of the signal peptide are marked only by lost underlining; also called LAG-3-Fc; LAG-3-Fc fusion protein
Method: Daudi cells (human leukemia cells, purchased from the cell bank in Chinese Academy of Sciences) were seeded in 96-well plate with a density of 3×10⁵/well. After centrifugation at 1000 rpm, the supernatant was discarded and then the plate was fixed with 4% PFA for 30 min at room temperature. The plate was washed 4 times with PBS after discarding the fixed solution, and the plate was blocked with 200 μl/well of blocking solution containing 5% skim milk (Bright Dairy, skim milk powder) diluted in PBS, and incubated at 37° C. for 2.5 hours. After blocking, the blocking solution was discarded and the plate was washed 5 times with PBST buffer (pH7.4 PBS containing 0.05% tween-20), added with 50 μl/well mixture of biotin-labeled (Biotin labeling kit, Dojindo Chemical, Cat No. LK03) LAG-3-Fc fusion protein (produced in-house, SEQ ID NO: 3) and gradient concentrations of the antibody to be tested, wherein the biotin-labeled LAG-3-Fc fusion protein has been diluted with sample diluent (PH7.4 PBS containing 1% BSA) at a final concentration of 0.4 μg/ml, and pre-mixed for an hour, then the plate was incubated at 37° C. for 1 h. The reaction solution was discarded and the plate was washed 5 times with PBST after incubation, 50 μl/well of HRP-labeled Streptavidin (Sigma, Cat No. 52438) diluted with sample diluent was added, and the plate was incubated at 37° C. for 1 h. After washing the plate 5 times with PBST, 50 μl/well of TMB chromogenic substrate (KPL, Cat No. 52-00-03) was added to each well, and incubated at room temperature for 5-15 min, the reaction was stopped by the addition of 50 μl 1M H₂SO₄ to each well. The OD value at a wavelength of 450 nm was read on NOVOStar microplate reader, and then the activity of the LAG-3 antibody in blocking the binding of the antigen to Daudi cells was calculated.

[3] = biological target: T3, LAG-3 extracellular domain with a Flag tag (human, UniProt P18627 23-434); experiment: SPR (Biacore), antibody captured on anti-human capture chip, LAG-3-Flag in flow
T3 construct: also called LAG-3-Flag; LAG-3-Flag antigen
T3 sequence: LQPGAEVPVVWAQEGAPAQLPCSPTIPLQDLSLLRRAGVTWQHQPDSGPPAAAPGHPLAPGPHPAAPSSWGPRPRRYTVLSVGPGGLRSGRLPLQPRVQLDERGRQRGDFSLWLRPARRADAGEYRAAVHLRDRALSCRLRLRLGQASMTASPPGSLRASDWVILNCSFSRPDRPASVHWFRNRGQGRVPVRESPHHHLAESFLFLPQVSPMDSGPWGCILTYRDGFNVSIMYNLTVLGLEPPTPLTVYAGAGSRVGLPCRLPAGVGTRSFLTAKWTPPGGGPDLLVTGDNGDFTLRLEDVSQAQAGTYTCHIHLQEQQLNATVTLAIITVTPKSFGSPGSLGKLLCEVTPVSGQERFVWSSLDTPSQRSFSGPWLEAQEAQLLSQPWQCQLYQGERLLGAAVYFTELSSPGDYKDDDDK
From the text: 2. […] Then, the LAG-3-Flag antigen (produced in-house, SEQ ID NO:1) was flowed through the surface of the biochip, and the reaction signal was detected real time using a Biacore instrument to obtain the binding and dissociation curves, the value of affinity was obtained by fitting, see table 10 below. After each cycle of dissociation was finished in the experiment, the biochip was washed and regenerated with a regeneration solution provided in the human anti-capture kit.

T2 sequence (chain, as listed by the source limits assumed): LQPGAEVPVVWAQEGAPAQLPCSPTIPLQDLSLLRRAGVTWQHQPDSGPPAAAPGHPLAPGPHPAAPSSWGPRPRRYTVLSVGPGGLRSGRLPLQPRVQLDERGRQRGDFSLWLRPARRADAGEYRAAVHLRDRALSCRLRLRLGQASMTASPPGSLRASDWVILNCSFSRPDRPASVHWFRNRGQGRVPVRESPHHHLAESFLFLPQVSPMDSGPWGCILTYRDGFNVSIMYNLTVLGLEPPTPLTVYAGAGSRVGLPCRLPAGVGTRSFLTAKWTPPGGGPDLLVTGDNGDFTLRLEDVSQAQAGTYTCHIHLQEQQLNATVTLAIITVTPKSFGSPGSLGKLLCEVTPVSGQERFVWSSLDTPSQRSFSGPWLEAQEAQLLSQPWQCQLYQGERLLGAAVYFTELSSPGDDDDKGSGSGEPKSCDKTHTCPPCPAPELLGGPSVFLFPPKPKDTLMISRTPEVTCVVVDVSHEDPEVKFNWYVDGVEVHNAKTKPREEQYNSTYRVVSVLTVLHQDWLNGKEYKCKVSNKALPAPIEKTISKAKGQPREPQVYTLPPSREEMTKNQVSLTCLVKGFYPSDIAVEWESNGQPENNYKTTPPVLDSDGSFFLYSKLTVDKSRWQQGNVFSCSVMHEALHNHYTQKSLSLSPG

Binder | EC50 [1] [pM] | IC50 [2] [pM] | Kd [3] [pM]
Hu303-010 (antibody, human IgG4 S228P, kappa, V domains shown, Humanized mAb303) VH: QVQLVQSGAEVKKPGASVKVSCKASGYTFTDYYMNWVRQAPGQRLEWMGVINPYNGDTAYNQKFKGRVTITVDKSASTAYMELSSLRSEDTAVYYCTRDDGYYDYYFDVWGQGTTVTVSS VL: DIQMTQSPSSLSASVGDRVTITCRASQDIGSRLNWYQQKPGKAPKRLIYATSTLDSGVPSRFSGSRSGTDFTLTISSLQPEDFATYYCLQLASSPPTFGGGTKVEIKR | 137 | 346 | 147
Hu229-014 (antibody, human IgG4 S228P, kappa, V domains shown, Humanized mAb229) VH: QVQLVQSGSELKKPGASVKVSCKASGYTFTTSGMSWVKQAPGQGLKWMGWINTYSGVPTYADDFKGRFVFSLDTSVSTAYLQISSLKAEDTATYYCARDNYDARDVYYYAMDYWGQGTTVTVSS VL: DIQMTQSPSSLSASVGDRVTITCRASENIYSNLAWYQQKPGKAPKLLVYAATNLADGVPSRFSGSGSGTQYTLTISSLQPEDFATYYCQHFWITPWTFGGGTKVEIKR | 153 | 718 | 37.4
Hu229-013 (antibody, human IgG4 S228P, kappa, V domains shown, also called LAG-3 antibody Hu229-013; LAG3 antibody Hu229-013) VH: QVQLVQSGSELKKPGASVKVSCKASGYTFTTSGMSWVKQAPGQGLKWMGWINTYSGVPTYADDFKGRFVFSLDTSVSTAYLQISSLKAEDTATYYCARDNYDARDVYYYAMDYWGQGTTVTVSS VL: DIQMTQSPSSLSASVGDRVTITCRASENIYSNLAWYQQKPGKAPKLLVYAATNLADGVPSRFSGSGSGTDYTLTISSLQPEDFATYYCQHFWITPWTFGGGTKVEIKR | 106 | 390 | 28.1
Hu229-019 (antibody, human IgG4 S228P, kappa, V domains shown, Humanized mAb229) VH: QVQLVQSGSELKKPGASVKVSCKASGYTFTTSGMSWVKQAPGQGLKWMGWINTYSGVPTYADDFKGRFVFSLDTSVSTAYLQISSLKAEDTATYFCARDNYDARDVYYYAMDYWGQGTTVTVSS VL: DIQMTQSPSSLSASVGDRVTITCRASENIYSNLAWYQQKPGKSPKLLVYAATNLADGVPSRFSGSGSGTQYTLTISSLQPEDFATYYCQHFWITPWTFGGGTKVEIKR | 68 | 289 | 72.9
Hu229-015 (antibody, human IgG4 S228P, kappa, V domains shown, Humanized mAb229) VH: QVQLVQSGSELKKPGASVKVSCKASGYTFTTSGMSWVKQAPGQGLKWMGWINTYSGVPTYADDFKGRFVFSLDTSVSTAYLQISSLKAEDTATYYCARDNYDARDVYYYAMDYWGQGTTVTVSS VL: DIQMTQSPSSLSASVGDRVTITCRASENIYSNLAWYQQKPGKSPKLLVYAATNLADGVPSRFSGSGSGTQYTLTISSLQPEDFATYYCQHFWITPWTFGGGTKVEIKR | 156 | 808 | 45.9
Hu229-010 (antibody, human IgG4 S228P, kappa, V domains shown, Humanized mAb229) VH: QVQLVQSGSELKKPGASVKVSCKASGYTFTTSGMSWVRQAPGQGLKWMGWINTYSGVPTYADDFKGRFVFSLDTSVSTAYLQISSLKAEDTAVYYCARDNYDARDVYYYAMDYWGQGTTVTVSS VL: DIQMTQSPSSLSASVGDRVTITCRASENIYSNLAWYQQKPGKAPKLLVYAATNLADGVPSRFSGSGSGTQYTLTISSLQPEDFATYYCQHFWITPWTFGGGTKVEIKR | 174 | 453 | 38.2
Hu229-009 (antibody, human IgG4 S228P, kappa, V domains shown, Humanized mAb229) VH: QVQLVQSGSELKKPGASVKVSCKASGYTFTTSGMSWVRQAPGQGLKWMGWINTYSGVPTYADDFKGRFVFSLDTSVSTAYLQISSLKAEDTAVYYCARDNYDARDVYYYAMDYWGQGTTVTVSS VL: DIQMTQSPSSLSASVGDRVTITCRASENIYSNLAWYQQKPGKAPKLLVYAATNLADGVPSRFSGSGSGTDYTLTISSLQPEDFATYYCQHFWITPWTFGGGTKVEIKR | 152 | 559 | 48.8
Hu229-017 (antibody, human IgG4 S228P, kappa, V domains shown, Humanized mAb229) VH: QVQLVQSGSELKKPGASVKVSCKASGYTFTTSGMSWVKQAPGQGLKWMGWINTYSGVPTYADDFKGRFVFSLDTSVSTAYLQISSLKAEDTATYFCARDNYDARDVYYYAMDYWGQGTTVTVSS VL: DIQMTQSPSSLSASVGDRVTITCRASENIYSNLAWYQQKPGKAPKLLVYAATNLADGVPSRFSGSGSGTDYTLTISSLQPEDFATYYCQHFWITPWTFGGGTKVEIKR | 48 | 239 | 67.1
